The record followed here is US20100129315A1.

The assay deals with human MN protein, entire extra-cellular domain with a C-terminal histag, expressed in HKB-11 cells (human) (UniProt Q16790). In words: method not restated (Biacore by context).

Substance “MN antibody G250, a humanized IgG1 antibody (Wilex)” had a Kd of 5.3 nM.
